{
  "source": "patent US20130172235A1",
  "about": "“ORAL TREATMENT OF INFLAMMATORY BOWEL DISEASE” (Novozymes A/S, priority 2011, published 2013)",
  "system": "Dextran Sodium Sulphate (DSS)-induced colitis",
  "experiment": "10-Day Dextran Sodium Sulphate (DSS)-induced colitis model in the mouse",
  "assay_type": "in vivo, Male C57BL/6 mice",
  "set-up": "key to Disease Activity Index (DAI): clinical DAI score, daily maximum 12",
  "conditions": "for Disease Activity Index (DAI): mean ± SEM, n=10; for additional DAI score without the change in body weight (only stool consistency and rectal bleeding): oral, 10-day treatment; for additional DAI score without the change in body weight (only stool consistency and rectal bleeding) / inhibition of the disease activity index (DAI): vs. vehicle",
  "from_the_text": "10-Day Dextran Sodium Sulphate (DSS)-Induced Colitis Model in the Mouse\nThe aim of the following study was to determine the anti-inflammatory activity of human beta defensin 2 in an acute (10-days) model of inflammatory bowel disease (colitis) induced by oral dextran sodium sulphate (DSS) administration in the mouse.\nStudy design: animals were divided into 5 experimental groups. Each group consisted of 10 males: Group A: Treated with Control vehicle (PBS) p.o. twice daily. Group B: Treated with methylprednisolone (1 mg/kg p.o. twice daily). Group C: Treated with hBD2 (0.05 mg/kg p.o. twice daily). Group D: Treated with hBD2 (0.5 mg/kg p.o. […]). Group E: Treated with hBD2 (5 mg/kg p.o. […]). Animal allocation to all experimental groups was done in a randomized manner. A maximum of 5 mice were housed in each cage (as per Directive 86/609/EEC). All animals were weighed on their arrival at the laboratory and prior to the administration of the test items.\nThe control vehicle and hBD2 were administered orally with the use of a sterile cannula in a dosing volume of 10 ml/kg body weith. The animals of all groups recieved 2 doses daily (at 9.00 h and 17.00 h) of the corresponding test item (test, reference or vehicle) for 10 consecutive days (experimental days 1-10).\nColitis was induced in mice by supplementing their drinking water with DSS 2% for 7 days. On Day 1 all mice were weighed and marked according to their experimental groups. The drinking bottle of each cage was filled with the DSS solution, making sure all bottle lids were mounted properly and that none were congested. On Day 3 any remaining solution in the bottles was emptied and refilled with fresh DSS solution. This procedure was repeated again on Day 5. On Day 8 any remaining solution was discarded and replaced with autoclaved water. Animals were sacrificed 2 days later on Day 10.\nDaily clinical assessment of DSS-treated animals was carried out, with the calculation of a validated clinical Disease Activity Index (DAI) ranging from 0 to 4 according to the following parameters: stool consistency, presence or absence of rectal bleeding and weight loss:\nBodyweight loss was calculated as the percent difference between the original bodyweight (Day 1) and the actual bodyweight on each experimental day (2-10). The appearance of diarrhoea is defined as mucus/faecal material adherent to anal fur. Rectal bleeding is defined as diarrhoea containing visible blood/mucus or gross rectal bleeding. The maximum score of the DAI each day is 12.\nOn day 10, two hours after the last administration of control vehicle, hBD2 or prednisolone, the animals were killed by an overdose of anaesthetic. Their colons were removed and their length and weight measured after exclusion of the caecum. Two sections (proximal and distal) of colon were taken from each animal and preserved in neutral buffered formalin for subsequent histological analysis (haematoxylin and eosin staining) according to the following scoring system:\nDescription Score: No changes observed (0). Minimal scattered mucosal inflammatory cell infiltrates, with or without minimal epithelial hyperplasia (1). Mild scattered to diffuse inflammatory cell infiltrates, sometimes extending into the submucosa and associated with erosions, with minimal to mild epithelial hyperplasia and minimal to mild mucin depletion from goblet cells (2). Mild to moderate inflammatory cell infiltrates that were sometimes transmural, often associated with ulceration, with moderate epithelial hyperplasia and mucin depletion (3). Marked inflammatory cell infiltrates that were often transmural and associated with ulceration, with marked epithelial hyperplasia and mucin depletion (4). Marked transmural inflammation with severe ulceration and loss of intestinal glands (5). […]",
  "key": {"[1]": {"conditions": "prednisolone 1 mg/kg p.o. twice daily (Group B), day 10"}},
  "note": "Ends that are not written are not given here.",
  "data": [
    {"compound": "C[C@H]1C[C@@H]2[C@H]([C@@H](O)C[C@@]3(C)[C@H]2CC[C@]3(O)C(=O)COC(=O)CCC(=O)O)[C@@]2(C)C=CC(=O)C=C12", "note": "[Methylprednisolone 21-hemisuccinate, reference compound]", "values": [
      {"measurement": "Disease Activity Index (DAI)", "setting": "Prednisolone 1 mg/kg p.o. twice daily, Day 6 as printed, P < 0.01 vs. vehicle", "result": "7 ± 0.33"},
      {"measurement": "additional DAI score without the change in body weight (only stool consistency and rectal bleeding)", "result": "very significant anti-inflammatory activity"},
      {"measurement": "histological injury induced by DSS in the distal colon", "setting": "[1]", "result": "significantly reduced"},
      {"measurement": "histological injury induced by DSS in the proximal colon", "setting": "[1]", "result": "significantly reduced"},
      {"measurement": "body weight", "setting": "prednisolone 1 mg/kg p.o. twice daily (group B), from day 2 until the end of the study", "result": "significant decrease"},
      {"measurement": "inhibition of the disease activity index (DAI)", "setting": "reference item prednisolone 1 mg/kg p.o. twice daily", "result": "significant inhibition"}
    ]},
    {"compound": "Human beta defensin 2 (GIGDPVTCLKSGAICHPVFCPRRYKQIGTCGLPGTKCCKKP; ends and bridges not checked; cysteine pairing not given here; listed as Homo sapiens) [hBD2, human beta defensin 2 (hBD2]", "values": [
      {"measurement": "Disease Activity Index (DAI)", "setting": "hBD2 0.05 mg/kg p.o., Day 6, max score 12, P < 0.01 vs. vehicle", "result": "1.2 ± 0.59"},
      {"measurement": "Disease Activity Index (DAI)", "setting": "hBD2 0.05 mg/kg p.o., Day 7, P < 0.05 vs. vehicle", "result": "1.9 ± 0.66"},
      {"measurement": "Disease Activity Index (DAI)", "setting": "hBD2 0.05 mg/kg p.o., Day 8, P < 0.001 vs. vehicle", "result": "4.5 ± 0.86"},
      {"measurement": "Disease Activity Index (DAI)", "setting": "hBD2 0.05 mg/kg p.o., Day 9, P < 0.001 vs. vehicle", "result": "5.6 ± 0.54"},
      {"measurement": "Disease Activity Index (DAI)", "setting": "hBD2 0.05 mg/kg p.o., Day 10, P < 0.05 vs. vehicle", "result": "8 ± 0.73"},
      {"measurement": "Disease Activity Index (DAI)", "setting": "hBD2 0.5 mg/kg p.o., Day 6, P < 0.05 vs. vehicle", "result": "1.7 ± 0.67"},
      {"measurement": "Disease Activity Index (DAI)", "setting": "hBD2 0.5 mg/kg p.o., Day 9, P < 0.05 vs. vehicle", "result": "7.1 ± 0.61"},
      {"measurement": "Disease Activity Index (DAI)", "setting": "hBD2 0.5 mg/kg p.o., Day 10, P < 0.01 vs. vehicle", "result": "7.3 ± 0.7"},
      {"measurement": "Disease Activity Index (DAI)", "setting": "hBD2 5 mg/kg p.o., Day 3, P < 0.05 vs. vehicle", "result": "0.5 ± 0.27"},
      {"measurement": "Disease Activity Index (DAI)", "setting": "hBD2 5 mg/kg p.o., Day 4, P < 0.05 vs. vehicle", "result": "0.6 ± 0.27"},
      {"measurement": "Disease Activity Index (DAI)", "setting": "hBD2 5 mg/kg p.o., Day 5, P < 0.05 vs. vehicle", "result": "1.8 ± 0.76"},
      {"measurement": "Disease Activity Index (DAI)", "setting": "hBD2 5 mg/kg p.o., Day 6, P < 0.05 vs. vehicle", "result": "1.4 ± 0.6"},
      {"measurement": "Disease Activity Index (DAI)", "setting": "hBD2 5 mg/kg p.o., Day 7, P < 0.05 vs. vehicle", "result": "2.1 ± 0.96"},
      {"measurement": "Disease Activity Index (DAI)", "setting": "hBD2 5 mg/kg p.o., Day 8, P < 0.01 vs. vehicle", "result": "5.4 ± 0.87"},
      {"measurement": "Disease Activity Index (DAI)", "setting": "hBD2 5 mg/kg p.o., Day 9, P < 0.001 vs. vehicle", "result": "5.2 ± 0.76"},
      {"measurement": "Disease Activity Index (DAI)", "setting": "hBD2 5 mg/kg p.o., Day 10, P < 0.001 vs. vehicle", "result": "5.6 ± 0.48"},
      {"measurement": "inhibition of the disease activity index (DAI)", "setting": "hBD2 at three dose levels (0.05, 0.5, 5 mg/kg) via the oral route", "result": "significant inhibition"},
      {"measurement": "histological damage in the proximal colon", "setting": "hBD2 twice daily, at 3 dose levels, p.o., day 10", "result": "significant reduction"},
      {"measurement": "histological damage in the distal colon", "setting": "hBD2 twice daily, at the intermediate and high dose levels, p.o., day 10", "result": "significant reduction"},
      {"measurement": "body weight compared to the control group", "setting": "high dose of the test item (5 mg/kg p.o.), day 10, P<0.05", "result": "significant increase"},
      {"measurement": "additional DAI score without the change in body weight (only stool consistency and rectal bleeding)", "result": "very significant anti-inflammatory activity"}
    ]}
  ]
}
